Test results as given in publication PMC8995368 (Structure (London, England : 1993), 2022).

B1: Myxococcus xanthus encapsulin cargo protein EncB (ferritin-like protein) (natural protein, M. xanthus, UniProt Q1D6H3 1-158, looked up)
chain: MAGPPDSDLDDVARIRLVLARELETINEYEAYARASSNPEVRAFFQHLAAEEKEHVSEAVHMLRMLDSGQNDHFAKPFVPGHFQAAEAPAPATVHVPTPDGPAFSVNGRNGRLPSEPPTSLPPQRLLYGLPAPPPAVESHPLTVGSLRRGGGGSGSGR
B2: Myxococcus xanthus encapsulin cargo protein EncC (ferritin-like protein) (natural protein, M. xanthus)
chain: MPQTNPFHSLVPRKMTDTELARSIRLNIEAELDAINLYAAHIDATDNEDAKAILQHVMDEEREHAALFWELIARLDPEQAAHAKEAVEKYRLITSGASHEAVEAVGKEGAAPSPADVTPEKRLTVGSLRR

Biological target: the molecule itself
Assay: crystal structure

Protein | stoichiometry N
B1 | 10
B2 | 10
